Results reported in US20220064286A1 (Genentech, published 2022).
Changes are numbered by the printed parent chain. Names may count otherwise. One block for each binder: values may come before it.

How the values were obtained:
[1] = target: cynomolgus monkey (cyno) TIGIT protein (cynomolgus monkey, UniProt A0A7N9I9V4 89-209); assay: SPR, bivalent affinity
human TIGIT protein = target: T1, human TIGIT protein (human, UniProt Q495A1 22-141, limits assumed); assay: SPR, bivalent affinity
T1 construct: Recombinant protein (Genentech) used in ELISA screening and as SPR analyte; also called TIGIT antigen
T1 sequence: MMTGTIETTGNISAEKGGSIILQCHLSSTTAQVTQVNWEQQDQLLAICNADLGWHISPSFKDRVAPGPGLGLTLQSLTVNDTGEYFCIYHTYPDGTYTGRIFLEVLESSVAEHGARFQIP

[2] = target: T2, human TIGIT-AviFlag-biotin (human, UniProt Q495A1 22-141, biotin); assay: Block ELISA Human PVR-Fc:Bio-TIGIT-AviFlag (blocked ligand human PVR-Fc)
T2 sequence: T1 sequence
Description: (§1) To test for the ability of the clones to block the TIGIT-PVR interaction, a blocking ELISA assay was used. Briefly, recombinant human PVR-Fc fusion protein, cynomolgus monkey PVR-Fc fusion protein, or mouse PVR-Fc fusion protein was coated at 4 μg/ml at 25 μl/well in phosphate-buffered saline (PBS, pH 7.0) onto 384-well Maxisorp microtiter plates (NUNC, Denmark) and incubated overnight at 4° C. The coating solution was then discarded and the plate was blocked using 0.5% bovine serum albumin (BSA) in PBS at 80 μl/well and incubated with gentle agitation for 1 hour. Titration curves of anti-TIGIT and Fab isotype control antibodies were diluted in assay buffer (PBS, 0.5% BSA, 0.05% Tween 20) using 12 serial 2.5-fold dilutions (40000-1.7 ng/mL). […] The plate was then washed 6× with wash buffer and bound human TIGIT-AviFlag-biotin, cyno TIGIT-AviFlag-biotin, or mouse TIGIT-His was detected by adding 25 μl/well of horseradish peroxidase-conjugated streptavidin (1:10000, Amersham, UK) or horseradish peroxidase-conjugated mouse anti-His (1:2500, Qiagen, Germany) diluted in assay buffer. […] Absorbance was read at 450 nm on a […] ASCENT® microtiter plate reader (Thermo Labsystems, Helsinki, Finland). Fit curves were plotted from the resulting optical density values from the ELISA plates and IC50s were calculated using Genedata Screener software (Genedata, Switzerland).

[3] = target: T3, cynomolgus TIGIT-AviFlag-biotin (cynomolgus monkey, UniProt A0A7N9I9V4 89-209, biotin); assay: Block ELISA Cyno PVR-Fc:Bio-TIGIT-AviFlag (blocked ligand cyno PVR-Fc)
T3 construct: also called cyno TIGIT-AviFlag-biotin
T3 sequence (A0A7N9I9V4 entry or part of it): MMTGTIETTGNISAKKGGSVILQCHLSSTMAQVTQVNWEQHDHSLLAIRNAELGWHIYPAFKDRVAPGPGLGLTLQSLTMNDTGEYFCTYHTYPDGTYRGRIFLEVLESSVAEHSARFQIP
Description: as §1

mouse TIGIT-His = target: T4, mouse TIGIT-His (mouse, UniProt P86176 29-148, limits assumed); assay: Block ELISA Mouse PVR-Fc:TIGIT-His (blocked ligand mouse PVR-Fc)
T4 sequence (looked up): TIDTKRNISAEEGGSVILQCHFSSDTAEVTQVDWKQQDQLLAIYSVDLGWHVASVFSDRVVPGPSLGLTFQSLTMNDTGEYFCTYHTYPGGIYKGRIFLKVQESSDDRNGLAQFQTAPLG
Description: as §1

[4] = target: T5, mu TIGIT (target named for 10A7 in the heads of Tables 6 and 7) (mu (mouse), UniProt P86176 29-249, limits assumed); assay: FACS, T cell binding (row: Human T cell; column head: mu TIGIT)
T5 construct: Only the column head says mu TIGIT; the text describes no mouse TIGIT cells
T5 sequence (looked up): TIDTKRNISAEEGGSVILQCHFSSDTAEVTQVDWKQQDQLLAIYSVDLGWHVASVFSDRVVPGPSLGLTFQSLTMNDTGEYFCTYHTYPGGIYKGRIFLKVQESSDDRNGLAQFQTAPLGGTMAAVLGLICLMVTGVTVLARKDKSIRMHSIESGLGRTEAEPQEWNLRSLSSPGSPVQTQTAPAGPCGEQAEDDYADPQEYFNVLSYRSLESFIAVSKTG
Method in brief: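 Activated human peripheral blood T cells were stained with each anti-TIGIT antibody and analysed by flow cytometry. Binding was detected with a FITC-labelled anti-human IgG, gated on CD25+CD4+ and CD25+CD8+ cells (LSR-II or LSR-Fortessa, FlowJo). EC50 values come from these titrations.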

[5] = target: T5, mu TIGIT (target named for 10A7 in the …); assay: TR-FRET, TIGIT with ST-CD226 on CHO cells; competitor CD226

cynomolgus monkey (cyno) TIGIT protein, sequence (A0A7N9I9V4 entry or part of it): as the sequence (A0A7N9I9V4 entry or part of it) above

- Kd [1]: 0.36 nM
- Kd (human TIGIT protein): ≤ 0.019 nM
B1: 4.1D3 (antibody, V domains shown)
VH: QVQLQQSGPGLVKPSQTLSLTCAISGDSVSSNSAAWNWIRQSPSRGLEWLGKTYYRFKWYSDYAVSVKGRITINPDTSKNQFSLQLNSVTPEDTAVFYCTRESTTYDLLAGPFDYWGQGTLVTVSS
VL: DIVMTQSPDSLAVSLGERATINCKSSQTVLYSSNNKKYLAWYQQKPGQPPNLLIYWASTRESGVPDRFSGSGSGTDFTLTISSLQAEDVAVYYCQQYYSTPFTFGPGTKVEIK
notes: OMT rat-derived human antibody; also called 4.1D3.Q1

- IC50 [2]: 6.9 nM
- IC50 [3]: 2.6 nM
- IC50 (mouse TIGIT-His): > 133 nM
B2: 4.1D3.Q1E (antibody, V domains shown)
VH: B1 VH with Q1E
VL: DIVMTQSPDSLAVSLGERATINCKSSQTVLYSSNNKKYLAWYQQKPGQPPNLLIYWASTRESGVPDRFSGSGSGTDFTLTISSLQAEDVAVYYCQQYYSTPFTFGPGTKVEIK

- EC50 [4]: 0.63 nM
- IC50 [5]: 17.6 nM
B3: 10A7 (antibody, V domains shown)
VH: EVQLVESGGGLTQPGKSLKLSCEASGFTFSSFTMHWVRQSPGKGLEWVAFIRSGSGIVFYADAVRGRFTISRDNAKNLLFLQMNDLKSEDTAMYYCARRPLGHNTFDSWGQGTLVTVSS
VL: DIVMTQSPSSLAVSPGEKVTMTCKSSQSLYYSGVKENLLAWYQQKPGQSPKLLIYYASIRFTGVPDRFTGSGSGTDYTLTITSVQAEDMGQYFCQQGINNPLTFGDGTKLEIKR
